Experimental data from publication PMC7876548, “Methylation of the D2 dopamine receptor affects binding with the human regulatory proteins Par-4 and Calmodulin” (microPublication Biology, 2021).
Square brackets hold non-standard residues; d marks the D form. Ends that are not written are not given here. * marks the point of attachment. K(5-FAM) = lysine labeled with 5-carboxyfluorescein (5-FAM), C-terminal, O=C(NCCCC[C@H](N*)C(=O)O)c1ccc2c(c1)C(=O)OC21c2ccc(O)cc2Oc2cc(O)ccc21; Arg(Me2s) = CN=C(NC)NCCC[C@H](N)C(=O)O

Molecular target: T1, human calmodulin (human, UniProt P0DP23 1-149)
T1 construct: Calmodulin, human; in pET-17b; Purification adapted from McCluskey et al. 2007; also called CaM; His-Calmodulin; source: Rosetta E. coli, purified (Ni-NTA, Phenyl-sepharose)
Assay: fluorescence polarisation; anisotropy; fluorescently labelled D2 peptide at 0.025 µM final, Par-4 or CaM added from 10x stocks of 0-20 µM; 200 mM NaCl, 200 µM CaCl2, 50 mM Tris pH 7.5; room temperature, ten minutes; average of four trials
Settings: both partners purified

Row | Kd [nM] | Binder
1 | 57.5 | VYIKIYIVLRRRRKRVNTKRSSRAFRAHLRAPLKGN-{K(5-FAM)} (D2 dopamine receptor, human, amino acids 208-243 of the third intracellular loop; The C-terminal fluorophore is carried on an added lysine (K-5-FAM) after residue 243; source: synthetic peptide (21st Century Biochemicals); not shown: FLAG, N-terminal, kept)
2 | 136 | VYIKIYIVL[Arg(Me2s)]R[Arg(Me2s)]RKRVNTKRSSRAFRAHLRAPLKGN-{K(5-FAM)} (D2 dopamine receptor, human, amino acids 208-243 of the third intracellular loop; Same peptide as m1 but with symmetric dimethylarginine at 217 and 219; The C-terminal fluorophore is carried on an added lysine (K-5-FAM); source: synthetic peptide (21st Century Biochemicals); not shown: FLAG, N-terminal, kept)
